Measured values taken from patent US7090842.

Tests used:
[1] = target: mouse anti-CEA monoclonal antibody 8019; assay: RIA, labeled Ab2 (3H1) on 8019-coated plates, no inhibitor
[2] = target: mouse anti-CEA monoclonal antibody 8019; assay: competition RIA, labeled Ab2 (3H1) on 8019-coated plates with 0.125 µg unlabeled 3H1
[3] = target: mouse anti-CEA monoclonal antibody 8019; assay: competition: Ab2 blocks binding of 8019 to CEA on MCF-7 cells
[4] = target: mouse anti-CEA monoclonal antibody 8019; assay: plate RIA, inhibition of radiolabeled 8019 binding to semipurified CEA, 25 ng 3H1
[5] = target: mouse anti-CEA monoclonal antibody 8019; assay: competition RIA, labeled Ab2 (3H1) bound to 8019-coated plates with 0.125 µg unlabeled 3H1
[6] = target: mouse anti-CEA monoclonal antibody 8019; assay: competition RIA, labeled Ab2 (3H1) on 8019-coated plates, 250 ng unlabeled 3H1

cpm Bound [1]: 12000 cpm
percent inhibition [2]: 97%
percent inhibition [3]: > 85%
percent inhibition [4]: 100%
cpm Bound [5]: 439 cpm
percent inhibition [6]: > 90%
B1: monoclonal anti-idiotype antibody 3H1 (antibody, V domains shown)
VH: EVQLQQSGPELVKPGASLKISCEASGYSLTAYTMNWVKQSHGKSLEWVGLINPFSGDTNYSQKFTGKATLTVDRSSSTAYMELLSLTSEDSAVYYCVITPVPYWYFDVWGAGTTVTVSS
VL: DIKMTQSPSSMYASLGERVTITCKASQDINGYLNWFQQEPGKSPKTLIYRANRLIDGVPSRFSGSGSGQVYSLTISSLEYEDMGTYYCLQFDEFPWMFGGGTKLEIK
